How the values were obtained:
[1] = target: T1, human c-Met (HGFR), full length, on the cell surface (human, UniProt P08581 25-1390); assay: cell binding on c-Met positive MKN45 cells, fluorescence readout RFU (R-PE), mean ± S.E.M. of two experiments in duplicate
T1 construct: Endogenous c-Met on human tumor cell lines MKN45, NCI-H596, PC-3 and HepG2; also called hepatocyte growth factor receptor; mesenchymal-epithelial transition factor

[2] = target: T1, human c-Met (HGFR), full length, on the …; assay: cell-based or functional assay
[3] = tested on: c-Met-positive tumor cell lines MKN45, NCI-H441 and PC-3; assay: Internalization by flow cytometry (AF488 quenching); format: cell-based, human
Procedure: Internalization of mAb3b was studied in human c-Met-positive tumor cell lines MKN45, NCI-H441 and PC-3. Cells (100,000 cells/well of a 96-well round bottomed microtiter plate) were incubated for 30 minutes at 4° C. with 50 μL 10 μg/mL mAb3b or appropriate non-binding control antibody. After a wash step with ice-cold complete growth medium (CGM) consisting of RPMI (Lonza) supplemented with 10% heat inactivated (HI) fetal bovine serum (FBS) (Gibco) and 80 U/mL penicillin/streptomycin (Lonza), the cells were incubated for 30 minutes at 4° C. with 50 μL Alexa Fluor 488 (AF488)-labeled Fab Fragment goat anti-human IgG (1:600 dilution) (Jackson Immunoresearch). After a wash step with ice-cold CGM, cells were resuspended in 150 μL pre-warmed CGM and transferred to polypropylene tubes, one for each time point (0 h, 0.5 h, 1 h, 3 h, 24 h) and placed into a 37° C. water bath to initiate internalization. […] Identical unquenched tubes were determined for the total fluorescence at each time point. Fluorescence intensities were determined by flow cytometry (BD FACSVerse, Franklin Lakes, NJ) and indicated as the Median Fluorescence Intensity (MFI). Internalization was quantified by calculating the percentage of internalization with the formula described. […]

c-Met = target: T2, c-Met (Homo sapiens, UniProt P08581, DEL964-1010); assay: Functionality of chimeric antibodies, stimulation of proliferation experiment in NCI-H596 cells; format: cell-based
T2 construct: endogenous in cells; host or cells: NCI-H596
Text: From this perspective, although all three wt/41C chimeric mAbs were humanized and studied in further experiments, wt/41C-chi-mAb3 is the most preferred chimeric anti-c-Met antibody to further develop into an ADC for treatment of a cancer indication.

[4] = target: T1, human c-Met (HGFR), full length, on the …; assay: flow cytometry on MKN45, NCI-H596 and PC-3 cells
Procedure: Cellular binding of the 14 wild-type chimeric and the 14 HC-41C chimeric anti-c-Met antibodies was studied in human c-Met-positive tumor cell lines MKN45, NCI-H596 and PC-3, rhesus c-Met-positive tumor cell line 4 MBr-5, and human c-Met-negative tumor cell line MDA-MB-175-VII. Cells were used around 90% of confluence at the time of an assay, detached with Trypsin-Versene (EDTA) (Lonza) for 5-10 minutes, washed and adjusted to a concentration of 1×10⁶ cells/mL in ice-cold FACS buffer (PBS 1×, 0.1% v/w BSA, 0.02% v/v sodium azide (NaN₃)). Staining was performed in 96-well round-bottomed microtiter plates using ice-cold reagents/solutions at 4° C. to prevent the modulation and internalization of surface antigens. 100,000 cells/well were added to 96-well plates (100 μL/well) and centrifuged at 300×g for 3 minutes. In case of pre-incubation with HGF (paracrine cell lines only), the cells were resuspended in 50 ng/mL recombinant human HGF in FACS buffer (50 μL/well) and incubated for 30 minutes at 4° C., followed by two wash steps with 150 μL FACS buffer. Supernatant was discarded and cells were stained for 30 minutes with 50 μL of each antibody. Serial dilutions were made in ice-cold FACS buffer. Cells were washed twice by centrifugation at 300×g for 3 minutes and resuspended in 50 μL 6000-times diluted secondary F(ab′)₂ goat anti-human IgG (Fc fragment specific) antibody APC-conjugated (Jackson ImmunoResearch). Following a 30-minute incubation on ice, cells were washed again 2 times and resuspended in 150 μL ice-cold FACS buffer for FACS analysis. For analysis of the data, the Median Fluorescence Intensity (MFI) values were obtained.

B1: ADC3b (antibody, human IgG1, kappa, V domains shown)
VH: QVQLVQSGAEVKKPGASVKVSCKASGYTFTDYYLNWVRQACGQGLEWMGLIFPGNDKTEYSEKFKGRVTLTTDTSISTAYMELSSLTSDDTALYYCSGGDYGGFVYWGQGTLVTVSS
VL: DIQMTQSPSSLSASVGDRVTISCGASENIYGALNWYQQQPGKAPKVLIFGATNLADGVPSRFSGSGSGTDFTLTISSLQPEDFATYYCQNVLSSPLTFGQGTKLEIKR
modifications: vc-seco-DUBA linker-drug on the engineered cysteine at HC position 41 (Kabat); DAR 1.9
notes: Antibody-drug conjugate of mAb3b; also called mAb3b-vc-seco-DUBA
Q: What does the source list for B1?
A: EC50 (read off the curve) [1]: ~0.04 µg/mL; Efficacy (%), in vitro cytotoxicity, MKN-45, -HGF [2]: 84%; Efficacy (%), in vitro cytotoxicity, NCI-H596, +HGF [2]: 44%; Efficacy (%), in vitro cytotoxicity, NCI-H596, -HGF [2]: 10%; Efficacy (%), in vitro cytotoxicity, PC-3, +HGF [2]: 75%; Efficacy (%), in vitro cytotoxicity, PC-3, -HGF [2]: 75%; IC50 1, in vitro cytotoxicity, PC-3, -HGF [2]: 0.05 nM; IC50, in vitro cytotoxicity, MKN-45, -HGF [2]: 0.38 nM; IC50, in vitro cytotoxicity, NCI-H596, +HGF [2]: 1.47 nM; IC50, in vitro cytotoxicity, NCI-H596, -HGF [2]: > 10 nM; IC50, in vitro cytotoxicity, PC-3, +HGF [2]: ~1.01 nM

B2: mAb3b: HC-41C humanized anti-c-Met antibody, VH SEQ ID NO:16, VL SEQ ID NO:20 (antibody, V domains shown)
VH: QVQLVQSGAEVKKPGASVKVSCKASGYTFTDYYLNWVRQACGQGLEWMGLIFPGNDKTEYSEKFKGRVTLTTDTSISTAYMELSSLTSDDTALYYCSGGDYGGFVYWGQGTLVTVSS
VL: DIQMTQSPSSLSASVGDRVTISCGASENIYGALNWYQQQPGKAPKVLIFGATNLADGVPSRFSGSGSGTDFTLTISSLQPEDFATYYCQNVLSSPLTFGQGTKLEIK
modifications: humanized HCVR; humanized LCVR
Q: With B2 as the molecule, how does the Internalization ([3]; 10 μg/mL, each of MKN45, NCI-H441, PC-3) read?
A: Efficient internalization

Q: And the “time of maximum internalization” value ([3]; each of the cell lines)?
A: 24 h

B3: wt-chi-mAb1: wild-type chimeric anti-c-Met IgG1 antibody, VH SEQ ID NO:1, VL SEQ ID NO:2 (antibody, V domains shown)
VH: EVQLQQSGPELLKPGASVKMSCKASGYIFTDYFMNWVKQSHGKSLEWIGRVNPKNGDITYNQKFRGKATLTVDKSLTTAYMQLNSLTSEDSAVYFCAYDGYYDGMDFWGQGTSVTVSS
VL: ENVLTQSPAIMSASPGEKVTMTCRANSSVSSNFLHWYQQKSGASPKLWISSTSNLAFGVPPRFSGSGSGTSYSLTISSVEAEDAATYYCHQYSGHPFTFGSGTKLEIK
modifications: human IgG1 constant regions; HCVR; LCVR
Q: For B3, which Functionality (c-Met) is on record?
A: Partial agonist

B4: 41C-chi-mAb1: HC-41C chimeric anti-c-Met IgG1 antibody, VH SEQ ID NO:7, VL SEQ ID NO:2 (antibody, V domains shown)
VH: EVQLQQSGPELLKPGASVKMSCKASGYIFTDYFMNWVKQSCGKSLEWIGRVNPKNGDITYNQKFRGKATLTVDKSLTTAYMQLNSLTSEDSAVYFCAYDGYYDGMDFWGQGTSVTVSS
VL: ENVLTQSPAIMSASPGEKVTMTCRANSSVSSNFLHWYQQKSGASPKLWISSTSNLAFGVPPRFSGSGSGTSYSLTISSVEAEDAATYYCHQYSGHPFTFGSGTKLEIK
modifications: IgG1 constant regions; HCVR - VH H41C; LCVR
Q: How did the Functionality (c-Met) turn out when B4 was run?
A: Partial agonist

B5: 41C-chi-mAb2: HC-41C chimeric anti-c-Met IgG1 antibody, VH SEQ ID NO:8, VL SEQ ID NO:4 (antibody, V domains shown)
VH: QVQLQQSGAELVRPGASVKLSCKASGYVFPDYEMHWVKQTCVHGLEWIGAFDPETGDTTYNQNFKGKATLTADKASSTAYMDLRSLTSGDSAVYYCARDYKYLYYYAMDNWGQGTSVTVSS
VL: QIVLTQSPAIMSASLGERVTMTCTASSSITSSYLHWYQQKPGSSPKLWIYSTTNLASGVPGRFSGSGSGTSFSLTISSMEAEDAATYYCHQYRRSPLTFGAGTKLELK
modifications: IgG1 constant regions; HCVR - VH P41C; LCVR
Q: Which Functionality (c-Met) does the source give for B5 here?
A: Partial agonist

B6: wt-chi-mAb2: wild-type chimeric anti-c-Met IgG1 antibody, VH SEQ ID NO:3, VL SEQ ID NO:4 (antibody, V domains shown)
VH: QVQLQQSGAELVRPGASVKLSCKASGYVFPDYEMHWVKQTPVHGLEWIGAFDPETGDTTYNQNFKGKATLTADKASSTAYMDLRSLTSGDSAVYYCARDYKYLYYYAMDNWGQGTSVTVSS
VL: QIVLTQSPAIMSASLGERVTMTCTASSSITSSYLHWYQQKPGSSPKLWIYSTTNLASGVPGRFSGSGSGTSFSLTISSMEAEDAATYYCHQYRRSPLTFGAGTKLELK
modifications: human IgG1 constant regions; HCVR; LCVR
Q: For B6, which Functionality (c-Met) is on record?
A: Partial agonist

B7: wt-chi-mAb3 (antibody, human IgG1, kappa, V domains shown)
VH: QIQLQQSGPELVKPGASVKISCKASGYTFTDYYLNWVKQRPGQGLEWIGLIFPGNDKTEYSEKFKGKATLTVDTSSSTAYIQLSRLSSEDSAIYFCSGGDYGGFVYWGQGTLVTVSS
VL: DIQMTQSPTSLSASVGETVTITCGASENIYGALNWYQRKQGKSPQLLIYGATNLADGMSSRFSGSGSGRQFSLKINSLHPDDVATYFCQNVLSSPLTFGSGTKLEIKR
notes: Mouse/human chimeric IgG1 kappa; also called wild-type chimeric antibody mAb3
Q: Does B7 bind [4]?
A: binds

B8: 41C-chi-mAb3: HC-41C chimeric anti-c-Met IgG1 antibody, VH SEQ ID NO:9, VL SEQ ID NO:6 (antibody, V domains shown)
VH: QIQLQQSGPELVKPGASVKISCKASGYTFTDYYLNWVKQRCGQGLEWIGLIFPGNDKTEYSEKFKGKATLTVDTSSSTAYIQLSRLSSEDSAIYFCSGGDYGGFVYWGQGTLVTVSS
VL: DIQMTQSPTSLSASVGETVTITCGASENIYGALNWYQRKQGKSPQLLIYGATNLADGMSSRFSGSGSGRQFSLKINSLHPDDVATYFCQNVLSSPLTFGSGTKLEIK
modifications: IgG1 constant regions; HCVR - VH P41C; LCVR
Q: How did the Functionality (c-Met) turn out when B8 was run?
A: Neutral

B9: wt-chi-mAb3: wild-type chimeric anti-c-Met IgG1 antibody, VH SEQ ID NO:5, VL SEQ ID NO:6 (antibody, V domains shown)
VH: QIQLQQSGPELVKPGASVKISCKASGYTFTDYYLNWVKQRPGQGLEWIGLIFPGNDKTEYSEKFKGKATLTVDTSSSTAYIQLSRLSSEDSAIYFCSGGDYGGFVYWGQGTLVTVSS
VL: DIQMTQSPTSLSASVGETVTITCGASENIYGALNWYQRKQGKSPQLLIYGATNLADGMSSRFSGSGSGRQFSLKINSLHPDDVATYFCQNVLSSPLTFGSGTKLEIK
modifications: human IgG1 constant regions; HCVR; LCVR
Q: How did the Functionality (c-Met) turn out when B9 was run?
A: Neutral

B10: 41C-chi-mAb3 (antibody, human IgG1, kappa, V domains shown)
VH: QIQLQQSGPELVKPGASVKISCKASGYTFTDYYLNWVKQRCGQGLEWIGLIFPGNDKTEYSEKFKGKATLTVDTSSSTAYIQLSRLSSEDSAIYFCSGGDYGGFVYWGQGTLVTVSS
VL: DIQMTQSPTSLSASVGETVTITCGASENIYGALNWYQRKQGKSPQLLIYGATNLADGMSSRFSGSGSGRQFSLKINSLHPDDVATYFCQNVLSSPLTFGSGTKLEIKR
notes: Chimeric IgG1 kappa with an engineered cysteine at HC position 41 (Kabat); also called HC-41C chimeric antibody mAb3
Q: Does B10 bind [4]?
A: binds
